Molecular target: NttE from L. pneumophila strain 130b, His6-tagged (residues 1 to 269; minus its N-terminal signal sequence) (Legionella pneumophila strain 130b)
Test: SEC-SAXS

## NttE from L. pneumophila strain 130b, His6-tagged (residues 1 to 269; minus its N-terminal signal sequence) (natural protein)
  stoichiometry N: 2

Source: PMC7325957
